Results on two proteins are retold here after patent US20030049732.

For this data set, the target named is T1, Nod1.
T1 chain: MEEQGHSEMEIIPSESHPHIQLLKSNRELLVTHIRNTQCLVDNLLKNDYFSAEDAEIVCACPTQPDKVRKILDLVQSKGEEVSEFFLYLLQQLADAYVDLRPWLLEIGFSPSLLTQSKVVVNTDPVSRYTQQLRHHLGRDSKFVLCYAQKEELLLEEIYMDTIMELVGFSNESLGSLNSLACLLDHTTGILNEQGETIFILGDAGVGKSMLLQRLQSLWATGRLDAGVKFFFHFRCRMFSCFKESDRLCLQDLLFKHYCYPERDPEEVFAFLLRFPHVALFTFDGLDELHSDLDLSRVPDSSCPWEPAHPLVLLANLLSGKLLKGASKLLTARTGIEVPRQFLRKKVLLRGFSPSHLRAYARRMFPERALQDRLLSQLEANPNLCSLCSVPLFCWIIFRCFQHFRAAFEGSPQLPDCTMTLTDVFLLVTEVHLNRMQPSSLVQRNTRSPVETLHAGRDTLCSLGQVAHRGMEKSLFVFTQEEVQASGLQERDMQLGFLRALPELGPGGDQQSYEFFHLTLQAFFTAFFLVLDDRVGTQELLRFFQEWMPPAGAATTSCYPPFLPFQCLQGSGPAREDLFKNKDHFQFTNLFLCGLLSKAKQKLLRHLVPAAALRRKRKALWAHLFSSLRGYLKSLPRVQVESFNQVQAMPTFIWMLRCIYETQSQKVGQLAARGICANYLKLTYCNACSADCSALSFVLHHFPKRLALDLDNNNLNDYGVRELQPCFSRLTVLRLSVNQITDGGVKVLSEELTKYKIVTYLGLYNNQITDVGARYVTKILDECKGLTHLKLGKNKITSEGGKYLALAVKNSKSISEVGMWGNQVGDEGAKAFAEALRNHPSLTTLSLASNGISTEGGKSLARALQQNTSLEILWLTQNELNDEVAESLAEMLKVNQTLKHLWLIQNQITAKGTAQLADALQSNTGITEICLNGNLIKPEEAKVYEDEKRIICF

B1: Caspase-9 (protein)
chain: MDEADRRLLRRCRLRLVEELQVDQLWDALLSRELFRPHMIEDIQRAGSGSRRDQARQLIIDLETRGSQALPLFISCLEDTGQDMLASFLRTNRQAAKLSKPTLENLTPVVLRPEIRKPEVLRPETPRPVDIGSGGFGDVGALESLRGNADLAYILSMEPCGHCLIINNVNFCRESGLRTRTGSNIDCEKLRRRFSSLHFMVEVKGDLTAKKMVLALLELAQQDHGALDCCVVVILSHGCQASHLQFPGAVYGTDGCPVSVEKIVNIFNGTSCPSLGGKPKLFFIQACGGEQKDHGFEVASTSPEDESPGSNPEPDATPFQEGLRTFDQLDAISSLPTPSDIFVSYSTFPGFVSWRDPKSGSWYVETLDDIFEQWAHSEDLQSLLLRVANAVSVKGIYKQMPGCFNFLRKKLFFKTS
Take B1: the “proteolytic processing of procaspase-9 (SDS-PAGE, anti-Flag immunoblot of 293T lysates)” value is “Expression of Nod1 includes the proteolytic activation of procaspase-9, but not that of procaspase-8”.

B2: Caspase-8 (protein)
chain: MDFSRNLYDIGEQLDSEDLASLKFLSLDYIPQRKQEPIKDALMLFQRLQEKRMLEESNLSFLKELLFRINRLDLLITYLNTRKEEMERELQTPGRAQISAYRVMLYQISEEVSRSELRSFKFLLQEEISKCKLDDDMNLLDIFIEMEKRVILGEGKLDILKRVCAQINKSLLKIINDYEEFSKERSSSLEGSPDEFSNGEELCGVMTISDSPREQDSESQTLDKVYQMKSKPRGYCLIINNHNFAKAREKVPKLHSIRDRNGTHLDAGALTTTFEELHFEIKPHDDCTVEQIYEILKIYQLMDHSNMDCFICCILSHGDKGIIYGTDGQEAPIYELTSQFTGLKCPSLAGKPKVFFIQACQGDNYQKGIPVETDSEEQPYLEMDLSSPQTRYIPDEADFLLGMATVNNCVSYRNPAEGTWYIQSLCQSLRERCPRGDDILTILTEVNYEVSNKDDKKNMGKQMPQPTFTLRKKLVFPSD
Turning to B2, the “proteolytic processing of procaspase-8 (SDS-PAGE, anti-HA immunoblot of 293T lysates)” value is given as “Expression of Nod1 includes the proteolytic activation of procaspase-9, but not that of procaspase-8”.
